22 molecules from US20240182911A1 (University of California, published 2024) can be followed below.

Assay [1] concerns the target T1, receptor-binding domain (RBD) of the SARS-COV-2 spike (S) protein (SARS-COV-2, UniProt P0DTC2 319-541). The experiment in a line: SPR equilibrium.
Assay [2] concerns the target T1, receptor-binding domain (RBD) of the …. Nature of the assay: On-yeast EC50.
The target is the same in assay [3]. Nature of the assay: SPR equilibrium. This is another data set of the same source.
Assay [4] has the same target. Nature of the assay: SPR kinetic.
Assay [5] shares this target. Nature of the assay: SPR kinetic. The source holds these as a separate data set.
The target is the same in assay [6]. Nature of the assay: SPR kinetic. The source holds these as a separate data set. On the technique in general: Surface plasmon resonance follows binding to a sensor surface in real time, without labels.
For assay [7] the target is unchanged. Nature of the assay: monovalent affinity, assay not named.
Assay [8] shares this target. The experiment in a line: SPR equilibrium. The source holds these as a separate data set.
Assay [9] shares this target. Nature of the assay: SPR equilibrium; affinity measurement note: Saturation not reached.

Where a chain is given by its changes, count along the chain named. Where two headings read alike, the source gives them in different places.

B1: RBD7i12 (VHH)
VHH: QVQLQESGGGLVQAGGSLRLSCAASGYISGAYYMGWYRQAPGKEREFVAGIGGGSTNYADSVKGRFTISRDNAKNTVYLQMNSLKPEDTAVYYCAVYQSVAYYCRGYFSYWGQGTQVTVSS
As to B1, the Kd in assay [1] amounted to 2590 nM.

B2: RBD7i13 (VHH)
VHH: B1 VHH with E46K
Regarding B2, the Kd in assay [1] was determined as 659 nM.

B3: RBD7 (VHH)
VHH: B1 VHH with C104Y
B3 displayed a Kd in assay [1] of 2210 nM.

B4: RBD9 (VHH)
VHH: QVQLQESGGGLVQAGGSLRLSCAASGYIFYSRRMGWYRQAPGKEREFVATIGHGTSTYYADSVKGRFTISRDNAKNTVYLQMNSLKPEDTAVYYCAALPRPHGAGTADARYNLWYWGQGTQVTVSS
Take B4: it took 131 nM to reach a half-maximal effect in assay [2] (EC50).

B5: RBD9i10 (VHH)
VHH: B4 VHH with T55A, D61G, N83D
As to B5, the midpoint of the response in assay [2], the EC50, lay at 15.2 nM.

B6: RBD11 (VHH)
VHH: QVQLQESGGGLVQAGGSLRLSCAASGNIFAKVWMGWYRQAPGKEREFVASIANGATTYYADSVKGRFTISRDNAKNTVYLQMNSLKPEDTAVYYCAARNWSGLGHFYWGQGTQVTVSS
B6 gave a Kd in assay [3] of 2420 nM.

B7: RBD11i12 (VHH)
VHH: B6 VHH with E44G, H105Y, G109S
Take B7: the Kd in assay [3] was 316 nM.

B8: RBD8 (VHH)
VHH: QVQLQESGGGLVQAGGSLRLSCAASGTIFGGPWMGWYRQAPGKEREFVAAIARGGNTNYADSVKGRFTISRDNAKNTVYLQMNSLKPEDTAVYYCAARDAVYPYLKYWGQGTQVTVSS
With B8, in assay [2], the response was half-maximal at 80.8 nM (EC50).

B9: RBD8i1 (VHH)
VHH: B8 VHH with F29S
On to B9, for which the EC50 in assay [2] was determined as 35.4 nM. Against the preceding molecule, the EC50 is about 2.3-fold lower.

B10: RBD6i10 (VHH)
VHH: QVQLQESGGGLVQAGGSLRLNCAASGSISTTYLMGWYRQAPGKERKFVATINRGGSTYYAVSVKGRFTISRDNAKNTVYLQMNSLKPEDTAVYYCAVGWPDPDYGLAYHRYWGQGTQVTVNS
For the molecule B10, in assay [4], the Kd was 597 nM, the koff turned out to be 0.00568 s⁻¹ and the association rate constant (kon) came out at 9500 M⁻¹ s⁻¹.

B11: RBD6 (VHH)
VHH: B10 VHH with N21S, K46E, V61D, N121S
Regarding B11, in assay [5], binding was characterised by a dissociation constant (Kd) of 990 nM, the koff stood at 0.00892 s⁻¹ and the on-rate constant (kon) turned out to be 9010 M⁻¹ s⁻¹.

B12: RBD6id (VHH)
VHH: B10 VHH with S25N, K46E, V61I, N121S
On to B12, for which, in [4], the affinity, expressed as Kd, was 263 nM; the koff worked out at 0.00271 s⁻¹; the kon is 10300 M⁻¹ s⁻¹.

B13: RBD6i13 (VHH)
VHH: B10 VHH with D103G
B13 had a Kd in [1] of 558 nM.

B14: RBD10i10 (VHH)
VHH: QVQLQESGGGLVQAGGSLRLSCAASGTIFQVGSMGWYRQAPGKGRKFVATIADGGSTNYAGSVKGRFTISRDNAKNTVYLQMNSLKPEDTAVYYCAALGQVSEYNSASYEWTYPYWGQGTQVTVSS
Consider B14, for which, in assay [6], the affinity, expressed as Kd, was 2.14 nM and the kon was determined as 154000 M⁻¹ s⁻¹.

B15: RBD10 (VHH)
VHH: B14 VHH with G44E, K46E, G55S, G61D
As for B15, in assay [6], the Kd is 417 nM, the dissociation rate constant (koff) was 0.00552 s⁻¹ and the kon was determined as 13200 M⁻¹ s⁻¹.

B16: RBD10i14 (VHH)
VHH: B14 VHH with M34V, G55S
In the case of B16, in assay [6], the koff was 0.000118 s⁻¹ and the on-rate (kon) turned out to be 167000 M⁻¹ s⁻¹. In [7], the Kd was determined as 0.72 nM.

B17: RBD3i2 (VHH)
VHH: QAQLQESGGGLVQAGGSLRLSCAASGNISDFRFMGWYRQAPGKERELVAAIGRGSNTRYADSVKGRFTISRDNAKNTVYLQMNSLKPEDTAVYYCAARNATYPYYVYWGQGTQVTVSS
In turn, B17 registered a Kd in assay [8] of 128 nM.

B18: RBD3 (VHH)
VHH: B17 VHH with A2V, R58Y
In turn, B18 returned a Kd in [9] of 6000 nM. This counts as single-digit micromolar.

B19: RBD3i17 (VHH)
VHH: B17 VHH with Y59C
In assay [8], B19 came in with a Kd of 230 nM. This lies in the sub-micromolar range.

B20: RBD1i1 (VHH)
VHH: QVQLQESGGGLVQAGGSLRLSCAASGTISYENFMGWYRQAPGKERKLVAGINDGTNTYYADSVKGRFTISRDNAKNTVYLQMNSLKPEDTAVYYCAVIGASVLGHAYWGQGTQVTVSS
B20: in assay [5], the dissociation constant Kd was found to be 48.1 nM, the koff turned out to be 0.0023 s⁻¹ and the kon stood at 47700 M⁻¹ s⁻¹.

B21: RBD1 (VHH)
VHH: B20 VHH with K46E, A100T
In [5], B21 came in with a Kd of 1400 nM, an off-rate constant (koff) of 0.0221 s⁻¹ and a kon of 15800 M⁻¹ s⁻¹.

B22: RBD1i13 (VHH)
VHH: B20 VHH with E44G, K86E
Regarding B22, in [5], binding was put at a Kd of 32.2 nM, the koff amounted to 0.00216 s⁻¹ and the kon is 67200 M⁻¹ s⁻¹.

For orientation: Kd means the free concentration of one partner at which half of the binding sites on the other are occupied at equilibrium, for simple one-to-one binding. Read a high Kd as lower affinity. As usually defined, the EC50 is the midpoint of the concentration-response curve. Low readings indicate greater potency, high ones weaker potency. In general, koff refers to the first-order rate constant of dissociation. Read a low koff as slow dissociation. What is called kon is the second-order rate constant of association.
